Assay results from patent US5478723A, “Method and apparatus for determining the role of cytochrome P450 and related enzymes in the metabolism of drugs and other chemicals” (priority 1993, dated 1995).

B1: CYP2D6: P450 enzyme in frozen human liver (protein, UniProt P10635 1-497, looked up)
Cytochrome P450 2D6: MGLEALVPLAVIVAIFLLLVDLMHRRQRWAARYPPGPLPLPGLGNLLHVDFQNTPYCFDQLRRRFGDVFSLQLAWTPVVVLNGLAAVREALVTHGEDTADRPPVPITQILGFGPRSQGVFLARYGPAWREQRRFSVSTLRNLGLGKKSLEQWVTEEAACLCAAFANHSGRPFRPNGLLDKAVSNVIASLTCGRRFEYDDPRFLRLLDLAQEGLKEESGFLREVLNAVPVLLHIPALAGKVLRFQKAFLTQLDELLTEHRMTWDPAQPPRDLTEAFLAEMEKAKGNPESSFNDENLRIVVADLFSAGMVTTSTTLAWGLLLMILHPDVQRRVQQEIDDVIGQVRRPEMGDQAHMPYTTAVIHEVQRFGDIVPLGVTHMTSRDIEVQGFRIPKGTTLITNLSSVLKDEAVWEKPFRFHPEHFLDAQGHFVKPEAFLPFSAGRRACLGEPLARMELFLFFTSLLQHFSFSVPTGQPRPSHHGVFAFLVSPSPYELCAVPR
B2: CYP2E1: P450 enzyme in frozen human liver (protein, UniProt P05181 1-493, looked up)
Cytochrome P450 2E1: MSALGVTVALLVWAAFLLLVSMWRQVHSSWNLPPGPFPLPIIGNLFQLELKNIPKSFTRLAQRFGPVFTLYVGSQRMVVMHGYKAVKEALLDYKDEFSGRGDLPAFHAHRDRGIIFNNGPTWKDIRRFSLTTLRNYGMGKQGNESRIQREAHFLLEALRKTQGQPFDPTFLIGCAPCNVIADILFRKHFDYNDEKFLRLMYLFNENFHLLSTPWLQLYNNFPSFLHYLPGSHRKVIKNVAEVKEYVSERVKEHHQSLDPNCPRDLTDCLLVEMEKEKHSAERLYTMDGITVTVADLFFAGTETTSTTLRYGLLILMKYPEIEEKLHEEIDRVIGPSRIPAIKDRQEMPYMDAVVHEIQRFITLVPSNLPHEATRDTIFRGYLIPKGTVVVPTLDSVLYDNQEFPDPEKFKPEHFLNENGKFKYSDYFKPFSTGKRVCAGEGLARMELFLLLCAILQHFNLKPLVDPKDIDLSPIHIGFGCIPPRYKLCVIPRS
B3: CYP2A6: P450 enzyme in frozen human liver (protein, UniProt P11509 1-494, looked up)
Cytochrome P450 2A6: MLASGMLLVALLVCLTVMVLMSVWQQRKSKGKLPPGPTPLPFIGNYLQLNTEQMYNSLMKISERYGPVFTIHLGPRRVVVLCGHDAVREALVDQAEEFSGRGEQATFDWVFKGYGVVFSNGERAKQLRRFSIATLRDFGVGKRGIEERIQEEAGFLIDALRGTGGANIDPTFFLSRTVSNVISSIVFGDRFDYKDKEFLSLLRMMLGIFQFTSTSTGQLYEMFSSVMKHLPGPQQQAFQLLQGLEDFIAKKVEHNQRTLDPNSPRDFIDSFLIRMQEEEKNPNTEFYLKNLVMTTLNLFIGGTETVSTTLRYGFLLLMKHPEVEAKVHEEIDRVIGKNRQPKFEDRAKMPYMEAVIHEIQRFGDVIPMSLARRVKKDTKFRDFFLPKGTEVYPMLGSVLRDPSFFSNPQDFNPQHFLNEKGQFKKSDAFVPFSIGKRNCFGEGLARMELFLFFTTVMQNFRLKSSQSPKDIDVSPKHVGFATIPRNYTMSFLPR
B4: CYP1A2: P450 enzyme in frozen human liver (protein, UniProt P05177 2-516, looked up)
Cytochrome P450 1A2: ALSQSVPFSATELLLASAIFCLVFWVLKGLRPRVPKGLKSPPEPWGWPLLGHVLTLGKNPHLALSRMSQRYGDVLQIRIGSTPVLVLSRLDTIRQALVRQGDDFKGRPDLYTSTLITDGQSLTFSTDSGPVWAARRRLAQNALNTFSIASDPASSSSCYLEEHVSKEAKALISRLQELMAGPGHFDPYNQVVVSVANVIGAMCFGQHFPESSDEMLSLVKNTHEFVETASSGNPLDFFPILRYLPNPALQRFKAFNQRFLWFLQKTVQEHYQDFDKNSVRDITGALFKHSKKGPRASGNLIPQEKIVNLVNDIFGAGFDTVTTAISWSLMYLVTKPEIQRKIQKELDTVIGRERRPRLSDRPQLPYLEAFILETFRHSSFLPFTIPHSTTRDTTLNGFYIPKKCCVFVNQWQVNHDPELWEDPSEFRPERFLTADGTAINKPLSEKMMLFGMGKRRCIGEVLAKWEIFLFLAILLQQLEFSVPPGVKVDLTPIYGLTMKHARCEHVQARLRFSIN

Assay: Storage stability of P450 enzymes in frozen human liver
Type: physicochemical
Conditions: human liver at -65 to -90 degrees C, up to six months
Text: P450 enzymes in frozen liver microsomes appear to be relatively stable.

Degradation on storage, no detectable degradation:
B1
B2
B3
B4
